One may read the Kd as the equilibrium constant for the complex coming apart.

Consider one substance from patent US20080014635A1.

Test [1] addresses mutant clone 6 (TNFrED H23P + S46I)-agglutinin fusion displayed on yeast (human). Put plainly: saturation binding of [125I]TNF-α to yeast displaying mutant clone 6, best-fit values box; axis 'Bound' has no unit [B].
Test [2] concerns the target wild-type TNFrED-agglutinin fusion displayed on the surface of S. cerevisiae BJ2168 (human). Description: saturation binding of [125I]TNF-α to yeast displaying wild-type TNFrED, best-fit values box; the box prints no unit, the concentration axis is TNF-α [nM] [A].
Test [3] addresses mutant clone 6 (TNFrED H23P + S46I)-agglutinin fusion displayed on yeast (human). Put plainly: saturation binding of [125I]TNF-α to yeast displaying mutant clone 6, best-fit values box; the box prints no unit, the concentration axis is TNF-α [nM] [B].
The target of test [4] is wild-type TNFrED-agglutinin fusion displayed on the surface of S. cerevisiae BJ2168 (human). Put plainly: flow cytometry of yeast, biotinylated hTNF-α detected with FITC-avidin (FL1-H); gate line at FL1-H just below 10^1; vector-only pYES2 yeast in the left panel: Right Half= 1.42% [B].
The target is the same in test [5]. Put plainly: saturation binding of [125I]TNF-α to yeast displaying wild-type TNFrED, best-fit values box; axis 'Bound' has no unit [A].
Test [6] addresses mutant clone 11 (TNFrED S76P)-agglutinin fusion displayed on yeast (human). Put plainly: saturation binding of [125I]TNF-α to yeast displaying mutant clone 11, best-fit values box; axis 'Bound' has no unit [C].
The target in test [7] is wild-type TNFrED-agglutinin fusion displayed on the surface of S. cerevisiae BJ2168 (human). Put plainly: flow cytometry of yeast, biotinylated hTNF-α detected with FITC-avidin (FL1-H); vector-only pYES2 yeast in the left panel: Left Half= 98.58% [B]. In general terms: A flow cytometer gives signals particle by particle.

Sequence of wild-type TNFrED-agglutinin fusion displayed on the surface of S. cerevisiae BJ2168 (human) (P20840 other isoform, or with tags, fused parts or gaps, form in doubt): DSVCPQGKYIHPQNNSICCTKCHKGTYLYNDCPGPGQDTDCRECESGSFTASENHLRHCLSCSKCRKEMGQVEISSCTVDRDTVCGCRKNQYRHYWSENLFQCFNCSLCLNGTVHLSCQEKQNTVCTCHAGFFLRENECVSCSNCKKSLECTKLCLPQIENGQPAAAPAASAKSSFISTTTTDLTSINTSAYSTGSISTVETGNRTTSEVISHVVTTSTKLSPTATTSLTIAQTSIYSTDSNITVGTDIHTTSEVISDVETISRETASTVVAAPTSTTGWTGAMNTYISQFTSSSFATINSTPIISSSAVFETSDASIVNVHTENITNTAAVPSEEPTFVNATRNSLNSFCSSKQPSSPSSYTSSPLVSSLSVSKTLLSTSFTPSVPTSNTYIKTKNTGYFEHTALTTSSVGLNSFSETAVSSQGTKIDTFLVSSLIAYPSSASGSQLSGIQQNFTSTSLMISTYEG
Sequence of mutant clone 6 (TNFrED H23P + S46I)-agglutinin fusion displayed on yeast (human) (P20840 other isoform, or with tags, fused parts or gaps H23P S46I H23P S46I, form in doubt): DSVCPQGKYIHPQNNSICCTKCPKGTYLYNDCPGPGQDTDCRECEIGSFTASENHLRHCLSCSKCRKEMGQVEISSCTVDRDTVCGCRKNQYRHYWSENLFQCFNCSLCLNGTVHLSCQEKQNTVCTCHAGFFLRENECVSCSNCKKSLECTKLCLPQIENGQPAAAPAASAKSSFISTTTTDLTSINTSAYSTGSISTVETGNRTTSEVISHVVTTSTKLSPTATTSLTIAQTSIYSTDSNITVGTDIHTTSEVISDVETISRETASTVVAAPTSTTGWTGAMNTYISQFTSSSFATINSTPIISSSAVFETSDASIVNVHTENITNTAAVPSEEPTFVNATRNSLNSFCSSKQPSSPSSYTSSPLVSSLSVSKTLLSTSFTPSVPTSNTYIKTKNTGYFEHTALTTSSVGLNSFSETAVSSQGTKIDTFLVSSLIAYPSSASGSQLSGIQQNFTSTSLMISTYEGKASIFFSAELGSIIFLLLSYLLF
Sequence of mutant clone 11 (TNFrED S76P)-agglutinin fusion displayed on yeast (human) (P20840 other isoform, or with tags, fused parts or gaps S76P S76P, form in doubt): as the sequence (P20840 other isoform, or with tags, fused parts or gaps H23P S46I H23P S46I, form in doubt) above, with P23H, I46S, S76P counted along it

With “human TNF-α (hTNF-α) (from UniProt P01375 77-233) (ligand)”, the results for the BMAX in test [1], in test [5] and in test [6] were 0.334, 0.0645 and 0.127, respectively. Further, the Kd in test [2] was 2.04 nM; in test [3], 1.71 nM. In test [4], this substance registered a Right Half (percent of yeast cells right of the FL1-H gate) of 10.9%. In test [7], this substance registered a Left Half (percent of yeast cells left of the FL1-H gate) of 89.1%.
